Measured values: PMC12148371 (iScience, 2025)

Molecular target: EBOV-GP-RBD without the glycan cap and MLD, displayed on the cell surface (EGPdcm, wild type) (Zaire ebolavirus)
Experiment: flow cytometry on cells

“NPC1-His (from UniProt O15118 23-1278) (receptor)” showed a percent NPC1 binding (positive cells) of 94.7% and a percent NPC1 binding (positive cells), without competitor of 76.4%.
